# Results taken from US20130059806A1.
# What was measured:
# [1] = biological target: biotin-FLAG-tagged TR2 and TR4 (biotin-FLAG-TR2 and biotin-FLAG-TR4 co-expressed in BirA-expressing MEL cells) (UniProt Q505F1); assay: streptavidin purification of biotin-tagged TR2/TR4 from MEL nuclear extract, mass spectrometry, experiment #1
# [2] = biological target: biotin-FLAG-tagged TR2 and TR4 (biotin-FLAG-TR2 and biotin-FLAG-TR4 co-expressed in BirA-expressing MEL cells) (UniProt Q505F1); assay: streptavidin purification of biotin-tagged TR2/TR4 from MEL nuclear extract, mass spectrometry, experiment #3
# [3] = biological target: biotin-FLAG-tagged TR2 and TR4 (biotin-FLAG-TR2 and biotin-FLAG-TR4 co-expressed in BirA-expressing MEL cells) (UniProt Q505F1); assay: streptavidin purification of biotin-tagged TR2/TR4 from MEL nuclear extract, mass spectrometry, experiment #2
# biotin-FLAG-tagged TR2 and TR4 (biotin-FLAG-TR2 and biotin-FLAG-TR4 co-expressed in BirA-expressing MEL cells), sequence (Q505F1 whole entry, chain 1 of 2): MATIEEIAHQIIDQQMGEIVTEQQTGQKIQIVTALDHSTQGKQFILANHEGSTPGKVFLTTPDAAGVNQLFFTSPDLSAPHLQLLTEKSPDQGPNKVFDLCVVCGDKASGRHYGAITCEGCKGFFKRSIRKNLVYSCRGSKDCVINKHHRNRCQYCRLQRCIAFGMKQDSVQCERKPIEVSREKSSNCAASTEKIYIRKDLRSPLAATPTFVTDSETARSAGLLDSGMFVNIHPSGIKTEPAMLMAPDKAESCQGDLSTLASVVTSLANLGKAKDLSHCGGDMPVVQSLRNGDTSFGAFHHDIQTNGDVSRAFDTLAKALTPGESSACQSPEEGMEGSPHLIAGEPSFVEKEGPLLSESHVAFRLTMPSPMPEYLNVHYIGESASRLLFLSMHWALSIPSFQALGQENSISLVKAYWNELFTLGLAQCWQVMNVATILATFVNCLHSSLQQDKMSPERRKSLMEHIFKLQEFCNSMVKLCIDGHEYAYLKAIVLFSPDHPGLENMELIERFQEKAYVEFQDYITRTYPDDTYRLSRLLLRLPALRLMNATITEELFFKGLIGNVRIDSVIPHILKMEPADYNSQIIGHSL
# biotin-FLAG-tagged TR2 and TR4 (biotin-FLAG-TR2 and biotin-FLAG-TR4 co-expressed in BirA-expressing MEL cells), sequence (P49117 whole entry, chain 2 of 2, further chain): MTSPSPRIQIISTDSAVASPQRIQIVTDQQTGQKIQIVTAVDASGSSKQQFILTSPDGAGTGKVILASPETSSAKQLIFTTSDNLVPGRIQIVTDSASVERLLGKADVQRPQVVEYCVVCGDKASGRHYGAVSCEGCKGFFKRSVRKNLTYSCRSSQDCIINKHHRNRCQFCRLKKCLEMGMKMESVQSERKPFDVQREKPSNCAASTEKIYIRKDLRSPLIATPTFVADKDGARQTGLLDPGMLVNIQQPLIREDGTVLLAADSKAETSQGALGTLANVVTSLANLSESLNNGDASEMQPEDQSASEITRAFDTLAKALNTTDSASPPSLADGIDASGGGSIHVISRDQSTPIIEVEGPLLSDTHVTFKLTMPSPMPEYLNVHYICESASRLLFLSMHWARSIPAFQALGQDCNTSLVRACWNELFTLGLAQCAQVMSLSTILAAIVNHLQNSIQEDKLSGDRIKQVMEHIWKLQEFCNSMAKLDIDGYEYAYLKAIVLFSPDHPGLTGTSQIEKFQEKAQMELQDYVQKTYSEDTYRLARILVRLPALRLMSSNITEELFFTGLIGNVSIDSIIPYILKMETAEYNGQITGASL
Substance,% coverage [1],total peptides [1],% coverage [2],total peptides [2],% coverage [3],total peptides [3]
RbAp48 (from UniProt Q60972 2-425),2%,2 peptides,1.9%,1 peptides,6.3%,3 peptides
HCF1 (Host Cell Factor 1) (from UniProt Q61191 2-2045),2.5%,4 peptides,0.8%,1 peptides,1.4%,2 peptides
PSPC1 (from UniProt Q8R326 1-523),3.3%,1 peptides,4.6%,2 peptides,7.8%,3 peptides
Sin3A (from UniProt Q60520 1-1274),–,–,1.1%,1 peptides,–,–
RbAp46 (from UniProt Q60973 2-425),2%,2 peptides,–,–,6.8%,3 peptides
DNA methyltransferase 1 (DNMT1) (from UniProt P13864 1-1620) (enzyme),13.5%,35 peptides,10.4%,15 peptides,10.1%,14 peptides
HDAC1 (from UniProt O09106 1-482) (enzyme),4.4%,2 peptides,8.9%,3 peptides,–,–
BRG1 (from UniProt Q3TKT4 1-1613) (enzyme),1.4%,2 peptides,0.8%,1 peptides,–,–
Mi2β (from UniProt Q6PDQ2 1-1915) (enzyme),1.1%,1 peptides,4.4%,6 peptides,5.3%,4 peptides
NonO (from UniProt Q99K48 1-473),7.8%,10 peptides,11%,7 peptides,17.8%,9 peptides

# Other lines, results leading:
% coverage [1],total peptides [1],% coverage [2],total peptides [2],% coverage [3],total peptides [3],Substance
2.8%,2 peptides,–,–,–,–,MTA2 (from UniProt Q9R190 1-668)
8.7%,7 peptides,1.8%,1 peptides,1.7%,1 peptides,MTA1 (from UniProt Q8K4B0 1-715)
–,–,4.9%,2 peptides,–,–,HDAC2 (from UniProt P70288 1-488) (enzyme)
–,–,2.6%,1 peptides,4.9%,2 peptides,CAPER (from UniProt Q8VH51 2-530)
15.3%,12 peptides,18.2%,10 peptides,15.9%,8 peptides,SFPQ (from UniProt Q8VIJ6 1-699)
12.7%,16 peptides,1.8%,1 peptides,9%,6 peptides,transcriptional intermediary factor (TIF)-1beta (from UniProt Q62318 2-834)
